According to the DeepSol protein solubility set:

Assay: soluble on expression in E. coli; label from the status in PepcDB or PDB records

Sequence	soluble on expression in E. coli
MGSDKIHHHHHHMIDMNLILKKKFQEISEVDDFISKASTETDYFEPSTLSHGIPGIILFLDAYQKVFDINTEQIVHKYIMKLAPYLQSGQYNNSLFGGLSGIAFSMDLASQNGKNYQNILNNIDGHIVNEIENKFDQILQEPLNPLNYDTVSGLAGIGRYLLNRVDENEFNVKALKSILVYFKDIQYSKNSWVVPQESQFLESDKNYFTEGNINLGLAHGVLGPMSLFALCVIKGITIENHQHILKDMYKFIMDEKFCNHERWLQRYDLISERNHFNFIRNGWCYGNTGVMTTLFLIGQALYYYEIIKMSKKVMLQVVNDKDENLISPTICHGLSSQILMLTIMNLNFELNEVSDYITVLINKLISHYKEDYLVNFIDINENKQDVFKSRKVGLLEGELGVYLTLMTLKNTKILNEKNWTNAFLIS	not soluble
MQVRRAVLGAAHVERSLANLTPFNEEFQEMITRHAWGDIWTRPGLPRHTRSLVTIAMLIGMNRNEELKLHLRAAKNNGVSRDEIKEVIMQSAIYCGIPAANATFHLAESVWDELGVESQQASR	not soluble
MIVGMSVSLLRGRTVRRVLSVLVVAGLLGAGVTGCSNDAGAKTENTVDASPTPTNTPTDGDGDSAEEPAQDTPAEPEQRPVPEEPEAMKTGDKAGAIAAATFFVEVIEYSLHSNNPELLEKYSYENCTNCNNLIETIAYRSKNGYESLETSYVINSVGTPSYVGTNHIIWGVPMSITSKEQLNRKESEQIETNKLTIYVTYENGEWDLTSIDPDGGQSTK	not soluble
MGSDKIHHHHHHMILDTLENLAHYTHLGPRIAKALQHLKETDFTQLPVGNYELEGKDIFVIVNDYETKPREVEPFEVHRKYIDVQYVVSGEEEFGYLPLADQTPSKPYYDKHDYAEFDYESNKARAAFIPFKAGMFALFFPQDMHMPGVSATPQKVRKVVIKVKI	not soluble
MGSDKIHHHHHHMMIKVFPKLRKQIWGSYRLGEMFGSNEKIGEVWLLSGHPLFITEAEGGLDLNEDMEKLIGKKLPRFPLLVKLISAEDWLSVQVHPNDDEAQELENEPWGKTEAWYFVEKGQIAIGEDPEKVKRALEDNSWDEALKKVEIEPGTFVFLPAGTVHALGPGGLLVEVQQASDLTYRVYDWGRGRELHIEKAFKVMKERKVEDLIVENFENFECEYFRIEKLERGKLEGFCAIVILENGVLDNRQVSPFETFIVPKGEKAELRATALVMRIGKFFEQWGDKK	not soluble
MIEGHGDDSYKYRHPIRSNFSSNVYNKVNLDGLRAHLCGRISAISAYPEPEPYTLEARLADRHALPAASVCVTNGATEAIYLIAQTFRGTNTAILMPTFSEYADACRMHGHKVTSLYTLDAVPEDVRMVWLCNPNNPTGEVRDKKYLTELIAKHPRVCFVIDQSYEYFTLKELFTAQEAAGFPNVILLHSMTKRYAIPGLRLGYVTAHPGLIGRLRTNRMPWSVNQLAIEAGLYLLSEGIPAGLSMKDYLAECARLKSSLEAIGGLEVWPTDTHFMLVCLRFGKAAALKEYLAREEGILIRDASNFEGLDERFFRIATQTPEENDELVGAIAKWMAE	not soluble
SEQDKWKTSAQLWQNLDEETIRALWNVQGQLNKLEEERDKAIEEIERQFLESSRPLYEERQRICSLVDRFWFHVLCSHPYTGTKMTNKDRTVLQHLEDVFFTEIENCMQGYQINLKFSPNDYIEDEIIWKQVKYVDDLQGWKGAASGIRWKRQDSIIDPDNEFFSDGEEVLQLTEKGNTVAKLQRKARSLLSWFETEDVTDNLKDVFYEDIWQHCIDWFFARDNASIEEFPVTMEGEQEDIVMID	soluble
MPPLPLIGMLLGTASTMIKSSSGAAAHASGASSAPSGDAAPTAPFAQTLKRNVQTQRQTNAGAGAGAPNAGNATNAATSGTANASTTSSASEPATTNAGNTKASGKPDDQDDDKNATQSASADAAAALAAAASLQAQLQARPDAQAAQAAAPQAGASDAAHPPTTLATNTAAAGDADTSALAGAQQPVGEALNAALSKLTGAGPAGAAATQRAQPAGRNDGAPTPLAANGPFDKMLAGAKAPAAPATLTDASGTNPAVSTAAQPAASGAIAALQDAADSARATLAASSAPAALQQAAPAALAANANAAAATAAPSLAPPVGTPDWTEALSQKVVFLSNAHQQSAELTLNPPDLGPLQVVLRVAENHAHALFVSQHAQVRDAVEAALPKLREAMEAGGLGLGSASVSDGGFASAQQQQTPQRQSSDGSAARRASGAPTADAALGEVSAVSSGGVTRRSVGMVDTFA	not soluble
MSRESTVREWRTRVPRYRLLGGRCSDCGRSFYPPAKACPYCGSRNVAETELPRVGRLEAYTVLYSVESGARDRSPVVIGLVDLGVAKVVSEIVDVSDPESLERGVQVEAVFRRIYEDGDEGVIVYGVKFRPKA	not soluble
MRRYFGTDGVRGEAGKPPLTPEFVLKLGQAAGAYFLAQEKRPVVLLAKDTRESSDLLEAALAAGLMSQGVRVEHLGVLPTPGVAHLTKALKATAGAVISASHNPYQDNGIKFFGPTGEKLPDGAEEEIERLLLEDHPTRGIGTVGDFREAERMYLDFLLAHAPDLTGLKVGLDLAHGATYRIGPKLFQKAGAEVMAFFNTPDGRNINRGCGSTHPEALSRFVVELGLDLGIAFDGDGDRVQFIDRKGRLFHGDHVLYLAALAFGEKGVVGTVMSNMALEVALKERGLAFHRAAVGDRYVLEKLKETGLALGGEPSGHVIFLRHHTTGDGLLTALLTLKALKALGGDLADWYEALPLYPQVLLNVRVSDKAKVMADPRLGEAVREAEARLGGRGRVNVRPSGTEPVVRVMVEAEEGAEEVARELAERVRALSQEAQAV	soluble
MGSDKIHHHHHHMSNRLSVVMIAKNAADLLPDCLGSVSWADEIIVLDSGSTDNTVELARRLGAQVYTHTDWRGYGIQRQRAQDYATGDWVLMIDTDERVTPELRQAILKVLDAPQRGAIYSIARRNYFLGRFMRHSGWYPDRVLRLYERARYRYNDNLVHESLDSLGAEVIPLTGDLLHLTCRDFAGFQQKQLAYAAAWALERHQKGKKTSMAGIFSHTLGAFLKTLLLRGGVLDGKQGWLLAMVNAQYTFTKYTELWALSHGYSEKESS	not soluble
MSLKRFIDDHRDVHGVEPICKVLPIAPSTYYAHAARRSDPELRSARAKTDEALMPEIRRVWDENFQVYGVRQLWRQMRREQFAVARCTVQRLMKRQGLRGVIRGKAVRTTVSDAKAPCPLDHVNRQFTSDRPNALWVSDFTDVSTWQGWICVAFVIDVFARRIVGWKASPSMRTELVLDALEQALHARKPVGSERMIHHSDRGVQYVSIRYTERLAEAGLEPSVGSVSDSYDNALAETINGLCKAEVIHRKSSWRTREEVEWATLTWVDWFNNRRVLEPIGNIPPAEAEANYYLISPDLQLQHLRAYREGHHHHHH	soluble
MSLDNRFPVCINTMKLTMPKLEVYYPSIGGISDINVQKKMNNTILNLVYQMIEDQGYYKNTETTITGYFEIKNNQRGILSLTLSNYAFSGGAHGMTIMKSLTFNVETGEEYSLSQLFKPGSNYVKVLSELIKVQIRERDIPVIEEFCAIKPNQDFYIADKILVLYFQLYELVPYAYGFPQFPISVYTIQDIINEDGPLGRMLYEGHHHHHH	soluble
MDIKAMGYVVIPRLPFKEFRDEKIYDHLFKRAEYRPNQELELGQTIIKVVELAKDFNWSAAQIKYSLDRMEKQGYIKLHRLPQKRGLIVTILHYADYIQLGNYMKNKALEPAQIEHQEVDDKMKNAFELYENKVARSVGPMEAQRIGYMVDDYGEEKVMEAIKTAFQLKGKAASLSYVQAILSNPFTQKRKEKQYGYKQSSQYRHRISNDHAGTSGKVSPLFGNKTGRIRRKG	not soluble
MGSDKIHHHHHHMQIDSSILGALRCFEAAGRLLSFTKAAESLNLTQSAVSQQIRHLEDRLGYVLFVRQPRSLKLTPQGEVLFETTTRALHDIQQTIQRLGMPNAPLQVNCLPSFALQWLMPRLTDFHREQPDVSVRLKAEFQALDRQSMDTEDIDVAVRYDPVRYSRLHADVLLDEYLIPVATPEYLAEHRELAEGTSLDGVVLLHDASPWVGAAEFVEWRTWLEAFHPTWMAHLEGPQFNLSSLAISAALNHQGVAMGRTALVYDEIRSGRLVNVFRQHVRAPARYMLLSRNPDDRRVTIFSAWLKAECARFDAMRMETLSRDR	not soluble
MTTLLRLATAGSVDDGKSTLIGRLLYDSKAVMEDQWASVEQTSKDRGHDYTDLALVTDGLRAEREQGITIDVAYRYFATPKRKFIIADTPGHIQYTRNMVTGASTAQLVIVLVDARHGLLEQSRRHAFLASLLGIRHLVLAVNKMDLLGWDQEKFDAIRDEFHAFAARLDVQDVTSIPISALHGDNVVTKSDQTPWYEGPSLLSHLEDVYIAGDRNMVDVRFPVQYVIRPHTLEHQDHRSYAGTVASGVMRSGDEVVVLPIGKTTRITAIDGPNGPVAEAFPPMAVSVRLADDIDISRGDMIARTHNQPRITQEFDATVCWMADNAVLEPGRDYVVKHTTRTVRARIAGLDYRLDVNTLHRDKTATALKLNELGRVSLRTQVPLLLDEYTRNASTGSFILIDPDTNGTVAAGMVLRDVSARTPSPNTVRHRSLVTAQDRPPRGKTVWFTGLSGSGKSSVAMLVERKLLEKGISAYVLDGDNLRHGLNADLGFSMADRAENLRRLSHVATLLADCGHLVLVPAISPLAEHRALARKVHADAGIDFFEVFCDTPLQDCERRDPKGLYAKARAGEITHFTGIDSPYQRPKNPDLRLTPDRSIDEQAQEVIDLLESSS	not soluble
MSVSSRGAASPAHRTAPTKWLFTKEEMKKTASIQEGMSREEELASRQMAAAFIQEMIDGLNNVKDPKMKIGHTGLCVAHTHMHRFYYLHSFKKYDYRDVGAACVFLAGKSQECPRKLSHVISVWRERKDRKQLTTETARNEAAQIIVLLESMILQTIAFDLNVHLPHIYVLDIMKKVDKKEHYRPLTSCAYYFATDVIAVTDWSLRYSAASMSIVIIHLMAAYANVRIERLFADFINEDSPWYAKFDETMTNEKLREMEVDFLVTYRNSCQFHHASKFNFREHRPMLENPDVRKLDRTRDARSHSPMVHHVPDSTVNVRPRAYVPRDELTVERLNKERGVEEERRKRERDRMAGKLDSSTSSEKRARIDPLANNFVSSSSSSNGKLAPPPIPPQLNFPPPPIVSSGYNHKNQINRKNHENNHTNSSVSPAFVPSARTFDVAPMLTPPTAPKLQSADNSDMDLEDGELE	not soluble
MKKINKGKSLSRFQLVSTLSVLGAMGLAGNVHAAEAFAADSPWMTGDWNGKRTELLDKGYDFSLEYVSEMASNLKGGSNDDTTGRYSDQFALGMKVDLQKVLGWQDAEFKLAITERSGRNISNDRIGDPRAGTLSSSQEVWGRGQTWRLTQMWVKQKYFDGALDVKAGRFGPGEDFNSFPCDFQNLSFCGSQVGNYVNTWYNWPISQWALRVKYNITPEVYAQVGVYEQNPSNLETGNGFKLSGSGTKGMILPVELVWTPTVNSLPGEYRVGYYKSTPNADDVYEDVNGQPQAATGAAFKSHDSKHGWWVVAQQQLTSHNGDASRGLSIFANATVHDKETNFVDNYQQIGLTYKGPFNSRPKDDIGVGIARIHVNDDVQDRVRLANQISGINDFDNPGYLPVQSTEYNSEIYYGFHVTNWLTVRPNLQFIKHPGGVDQVDDAIVAGIKIQSKF	not soluble
GMREMQIMSQPEQSRLDLFIDRMVSQRACLEHAIAQTAGLSGPVYELGLGNGRTYHHLRQHVQGREIYVFERAVASHPDSTPPEAQLILGDIRETLPATLERFGATASLVHADLGGHNREKNDRFARLISPLIEPHLAQGGLMVSSDRMYFEGLEELPLPPGAVVGRCFIYRRG	soluble
MGSDKIHHHHHHMANVTPDLVKALFVGFGKNFKDGLAKAPSQYTEIATVVKSTTASNTYAWLGQMPGLTEWIGDRTLTAIQSHGYSIVNKKWANGVEIQRTDIEDDNVGVYSPLIEELGRAAGEKADELVFGALTAGFKTACYDGQYFFDTDHPVGANVDGTNQKSVSNITDDSTGVTEANAWYLLDCSRSLKPIIYQERKAPTPAQITDANDEKVFMKDVFTYGVDSRSNVGYGFWQMAHAVKGKLTAENLWKAIEAMRAVRGDGDKRLAIRPTHIVVPPSLAQAATKLLERELRAEDGVAVDNEFKRMNLKLIVGDYL	not soluble
